# From patent US20060234942 (published 2006)
# T1: angiotensin I converting enzyme (ACE) (UniProt P12821)
# T1 chain: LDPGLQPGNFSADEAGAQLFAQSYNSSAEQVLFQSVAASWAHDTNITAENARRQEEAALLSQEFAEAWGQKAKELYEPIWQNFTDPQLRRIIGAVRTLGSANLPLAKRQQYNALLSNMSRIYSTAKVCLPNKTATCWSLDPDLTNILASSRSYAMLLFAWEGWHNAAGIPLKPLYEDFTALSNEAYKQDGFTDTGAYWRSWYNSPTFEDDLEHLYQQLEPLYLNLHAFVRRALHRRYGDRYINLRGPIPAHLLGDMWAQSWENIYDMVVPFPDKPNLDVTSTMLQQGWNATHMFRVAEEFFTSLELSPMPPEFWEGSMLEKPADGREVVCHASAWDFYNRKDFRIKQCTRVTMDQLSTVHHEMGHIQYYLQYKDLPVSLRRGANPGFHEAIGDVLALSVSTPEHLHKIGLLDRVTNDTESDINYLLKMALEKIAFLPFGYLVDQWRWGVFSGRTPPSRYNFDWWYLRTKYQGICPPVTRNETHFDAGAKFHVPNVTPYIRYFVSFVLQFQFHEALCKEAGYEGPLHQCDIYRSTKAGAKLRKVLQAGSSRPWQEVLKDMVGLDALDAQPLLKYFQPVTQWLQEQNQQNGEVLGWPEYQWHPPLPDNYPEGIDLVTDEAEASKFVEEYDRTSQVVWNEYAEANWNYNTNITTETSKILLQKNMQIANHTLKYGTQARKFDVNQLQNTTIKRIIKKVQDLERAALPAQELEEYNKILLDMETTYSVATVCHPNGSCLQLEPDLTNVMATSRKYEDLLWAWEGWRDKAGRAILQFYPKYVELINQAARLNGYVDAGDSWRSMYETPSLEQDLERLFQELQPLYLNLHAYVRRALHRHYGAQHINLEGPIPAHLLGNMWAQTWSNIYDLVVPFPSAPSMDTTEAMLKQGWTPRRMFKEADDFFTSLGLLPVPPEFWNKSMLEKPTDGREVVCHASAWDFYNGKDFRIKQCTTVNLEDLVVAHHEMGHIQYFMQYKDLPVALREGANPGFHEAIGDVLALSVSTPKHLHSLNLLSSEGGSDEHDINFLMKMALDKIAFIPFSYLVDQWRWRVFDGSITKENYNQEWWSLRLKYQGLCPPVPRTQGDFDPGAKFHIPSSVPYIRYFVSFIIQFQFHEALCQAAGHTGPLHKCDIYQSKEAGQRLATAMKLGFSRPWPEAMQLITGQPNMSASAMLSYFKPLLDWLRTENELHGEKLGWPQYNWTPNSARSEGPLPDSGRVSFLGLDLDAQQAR
# B1: FALPQYLK (CNαS2-(f174-181)) (peptide)
# chain: FALPQYLK
# B2: ALNEINQFYQK (CNαS2-(f81-91)) (peptide)
# chain: ALNEINQFYQK
# B3: FPQYLQY (CNαS2-(f92-98)) (peptide)
# chain: FPQYLQY
# B4: NMAINPSK (CNαS2-(f25-32)) (peptide)
# chain: NMAINPSK
# B5: TVY (CNαS2-(f182-184)) (peptide)
# chain: TVY
# B6: FALPQY (CNαS2-(f174-179)) (peptide)
# chain: FALPQY
# B7: ALNEINQFY (CNαS2-(f81-89)) (peptide)
# chain: ALNEINQFY
# Molecular target: T1, angiotensin I converting enzyme (ACE)
# Test: other, ACE inhibition
row,IC50,Binder
1,4.3 µM,B1
2,26.4 µM,B2
3,14 µM,B3
4,60 µM,B4
5,15 µM,B5
6,4.3 µM,B6
7,219 µM,B7
